Patent US8975259B2, “Compositions and methods for inhibiting G protein signaling” (University of Rochester, priority 2007, dated 2015)

How the values were obtained:
PLCβ3 = assay: Gβ1γ2-dependent activation of purified PLCβ3; assay type: biochemical; settings: Table 4; read-out: PLC β3 IC50
Protocol: (§1) Purified PLCβ2 (0.25 ng) was assayed in the presence (▴) or absence (▪) of 100 nM purified Gβ1γ2. […] Assays contained 10 ng of purified p101/p110 PI3Kγ heterodimer with or without 100 nM purified Gβ1γ2. Left panel: (▴) 100 nM Gβ1γ2 or (▪) no βγ. […] M119 or M201 and 25 nM purified GRK2 were added simultaneously to 250 nM biotinylated Gβ1γ2 (bGβ1γ2) immobilized on streptavidin agarose. GRK2 was detected with antibody to GRK2. Data are representative (mean ±SEM, except D) repeated at least three times each. […] 30 nM bGβ1γ2 was incubated with either 30 nM PLCβ2 or PLCβ3 in the presence or absence of M119 or M201 for 16 h at 4° C. before precipitation with avidin agarose and detection with PLCβ2,or Gβ antibodies. […] Same as 4E with PLCβ3.
The ability of NSC119910 analogs to selectively modulate activation PLC-β2 and -β3 was analyzed. In this assay, PLC-β2 and PLC-β3 were purified and PLC enzymatic activity was measured in the presence or absence of purified βy and in the presence or absence of analog.
(§2) Nevertheless, M119 and M201 were tested in in vitro reconstitution assays of Gβγ-dependent activation of PLCβ2, PLCβ3 and PI3Kγ and binding to GRK2. […] These are only two of multiple diverse compounds identified, indicating potential for multiple modes of Gβγ-dependent target modulation by these small molecules.

PI3Kγ = assay: Gβ1γ2-dependent activation of purified p101/p110 PI3Kγ; assay type: biochemical; settings: Table 5; read-out: PI3Kγ IC50
Protocol: as §1, §2

Gβ1γ2 (Gβ1 mutants) [1] = target: T1, Gβ1γ2 (Gβ1 mutants) (UniProt P54311+P63212, D246S); assay: Phage ELISA: binding of peptide-displaying phage to wild-type or alanine-substituted b-βγ; parameters: species or system rat; settings: Gβ1 Asp246Ser; mean ± SD
T1 construct: made in house; host or cells: Sf9 insect cells (baculovirus), partially purified via (His)6-Gαi1 on Ni-NTA
Excerpt: (§3) Wild-type Gβ1 and Gp1 mutants were made in the baculovirus vector PDW464 which encodes a biotinylation site at a lysine upstream of the amino terminus of Gβ1 (Goubaeva, et al. (2003) supra). Mutants were generated by overlap extension PCR using standard protocols. The wild-type and mutant Gβ1 constructs consisted of a 20 amino acid biotin acceptor peptide (BAP) sequence fused in-frame with the amino-terminus of rat Gβ1 subunit. When coexpressed with biotin holoenzyme synthetase (BirA) in Sf9 cells, the Gβ1 subunit becomes covalently biotinylated in vivo at the specific lysine acceptor residue in the BAP. Using this approach, 1-2 mg protein of purified protein can be obtained per liter of Sf9 insect cells. As 45 ng of protein is used in the phage ELISA assay, a single purification is sufficient for 10,000 to 30,000 binding assays.
(§4) Phage ELISA assays used to assess peptide binding to wild-type and mutant b-βγ were performed according to standard methods (Smrcka and Scott (2002) Methods Enzymol. 344:557-76). Briefly, 1 μg streptavidin was immobilized in the well of a […] overnight at 4° C. The wells were blocked with 100 μL of 2% bovine serum albumin (BSA) in Tris-buffered saline (TBS) for 1 hour at 4° C. followed by three washes of IX TBS/0.5% TWEEN®. Forty μL of 25 nM bGβ1γ2 in TBS/0.5% TWEEN® was added to each well and incubated at 4° C. for 1.5 hour. The wells were washed, followed by the addition of IxIO^6 to IxIO^10 phage particles and incubated at 4° C. for 3 hours. The wells were then washed six times with TBS/0.5% TWEEN® followed by addition of 40 μL of 1:5000 dilution of anti-M13 antibody (Pharmacia, Uppsala, Sweden) and incubated at room temperature for 1 hour. The wells were washed, followed by the addition of 40 μL of (2,2′-Azino-bis (3-ethylbenzthiazoline)-6-sulfonic acid (ABTS) and the colorimetric reaction was monitored at 405 nm. Nonspecific binding was subtracted for each reading.
(§5) The nine peptides were selected to represent the different consensus groups of peptides previously identified (See Scott et al. (2001) supra; Table 15) and to compare binding characteristics within and between consensus groups. […] As disclosed herein, the binding signal obtained in the ELISA assay was correlated to a loss in affinity by comparing the results to behavior of the peptide in a solution based assay. […] For the purposes of present disclosure, any substitution that decreased the binding to less than 20% of the wild-type binding was considered to be a critical binding contact for that peptide.

Gβ1γ2 (Gβ1 mutants) [2] = target: T2, Gβ1γ2 (Gβ1 mutants) (UniProt P54311+P63212, N230A); assay: as above; parameters: species or system rat; settings: Gβ1 Asn230Ala; mean ± SD
T2 construct: made in house; host or cells: Sf9 insect cells (baculovirus), partially purified via (His)6-Gαi1 on Ni-NTA
Excerpt: as §3, §4, §5

Gβ1γ2 (Gβ1 mutants) [3] = target: T3, Gβ1γ2 (Gβ1 mutants) (UniProt P54311+P63212, Y145A); assay: as above; parameters: species or system rat; settings: Gβ1 Tyr145Ala; mean ± SD
T3 construct: made in house; host or cells: Sf9 insect cells (baculovirus), partially purified via (His)6-Gαi1 on Ni-NTA
Excerpt: as §3, §4, §5

Gβ1γ2 (Gβ1 mutants) [4] = target: T4, Gβ1γ2 (Gβ1 mutants) (UniProt P54311+P63212, R314A); assay: as above; parameters: species or system rat; settings: Gβ1 Arg314Ala; mean ± SD
T4 construct: made in house; host or cells: Sf9 insect cells (baculovirus), partially purified via (His)6-Gαi1 on Ni-NTA
Excerpt: as §3, §4, §5

Gβ1γ2 (Gβ1 mutants) [5] = target: T5, Gβ1γ2 (Gβ1 mutants) (UniProt P54311+P63212, W332A); assay: as above; parameters: species or system rat; settings: Gβ1 Trp332Ala; mean ± SD
T5 construct: made in house; host or cells: Sf9 insect cells (baculovirus), partially purified via (His)6-Gαi1 on Ni-NTA
Excerpt: as §3, §4, §5

Gβ1γ2 (Gβ1 mutants) [6] = target: T6, Gβ1γ2 (Gβ1 mutants) (UniProt P54311+P63212, Y59A); assay: as above; parameters: species or system rat; settings: Gβ1 Tyr59Ala; mean ± SD
T6 construct: made in house; host or cells: Sf9 insect cells (baculovirus), partially purified via (His)6-Gαi1 on Ni-NTA
Excerpt: as §3, §4, §5

Gβ1γ2 (Gβ1 mutants) [7] = target: T7, Gβ1γ2 (Gβ1 mutants) (UniProt P54311+P63212, K57A); assay: as above; parameters: species or system rat; settings: Gβ1 Lys57Ala; mean ± SD
T7 construct: made in house; host or cells: Sf9 insect cells (baculovirus), partially purified via (His)6-Gαi1 on Ni-NTA
Excerpt: as §3, §4, §5

Gβ1γ2 (Gβ1 mutants) [8] = target: T8, Gβ1γ2 (Gβ1 mutants) (UniProt P54311+P63212, W99A); assay: as above; parameters: species or system rat; settings: Gβ1 Trp99Ala; mean ± SD
T8 construct: made in house; host or cells: Sf9 insect cells (baculovirus), partially purified via (His)6-Gαi1 on Ni-NTA
Excerpt: as §3, §4, §5

Gβ1γ2 (Gβ1 mutants) [9] = target: T9, Gβ1γ2 (Gβ1 mutants) (UniProt P54311+P63212, D186A); assay: as above; parameters: species or system rat; settings: Gβ1 Asp186Ala; mean ± SD
T9 construct: made in house; host or cells: Sf9 insect cells (baculovirus), partially purified via (His)6-Gαi1 on Ni-NTA
Excerpt: as §3, §4, §5

Gβ1γ2 (Gβ1 mutants) [10] = target: T10, Gβ1γ2 (Gβ1 mutants) (UniProt P54311+P63212, M101A); assay: as above; parameters: species or system rat; settings: Gβ1 Met101Ala; mean ± SD
T10 construct: made in house; host or cells: Sf9 insect cells (baculovirus), partially purified via (His)6-Gαi1 on Ni-NTA
Excerpt: as §3, §4, §5

Gβ1γ2 (Gβ1 mutants) [11] = target: T11, Gβ1γ2 (Gβ1 mutants) (UniProt P54311+P63212, L117A); assay: as above; parameters: species or system rat; settings: Gβ1 Leu117Ala; mean ± SD
T11 construct: made in house; host or cells: Sf9 insect cells (baculovirus), partially purified via (His)6-Gαi1 on Ni-NTA
Excerpt: as §3, §4, §5

Gβ1γ2 (Gβ1 mutants) [12] = target: T12, Gβ1γ2 (Gβ1 mutants) (UniProt P54311+P63212, H311A); assay: as above; parameters: species or system rat; settings: Gβ1 His311Ala; mean ± SD
T12 construct: made in house; host or cells: Sf9 insect cells (baculovirus), partially purified via (His)6-Gαi1 on Ni-NTA
Excerpt: as §3, §4, §5

Gβ1γ2 (Gβ1 mutants) [13] = target: T13, Gβ1γ2 (Gβ1 mutants) (UniProt P54311+P63212, M188A); assay: as above; parameters: species or system rat; settings: Gβ1 Met188Ala; mean ± SD
T13 construct: made in house; host or cells: Sf9 insect cells (baculovirus), partially purified via (His)6-Gαi1 on Ni-NTA
Excerpt: as §3, §4, §5

Molecule	IC50 (PLCβ3)	IC50 (PI3Kγ)	% of Wild-Type Signal (Gβ1γ2 (Gβ1 mutants) [1])	% of Wild-Type Signal (Gβ1γ2 (Gβ1 mutants) [2])	% of Wild-Type Signal (Gβ1γ2 (Gβ1 mutants) [3])	% of Wild-Type Signal (Gβ1γ2 (Gβ1 mutants) [4])	% of Wild-Type Signal (Gβ1γ2 (Gβ1 mutants) [5])	% of Wild-Type Signal (Gβ1γ2 (Gβ1 mutants) [6])	% of Wild-Type Signal (Gβ1γ2 (Gβ1 mutants) [7])	% of Wild-Type Signal (Gβ1γ2 (Gβ1 mutants) [8])	% of Wild-Type Signal (Gβ1γ2 (Gβ1 mutants) [9])	% of Wild-Type Signal (Gβ1γ2 (Gβ1 mutants) [10])	% of Wild-Type Signal (Gβ1γ2 (Gβ1 mutants) [11])	% of Wild-Type Signal (Gβ1γ2 (Gβ1 mutants) [12])	% of Wild-Type Signal (Gβ1γ2 (Gβ1 mutants) [13])
Nc1c(S(=O)(=O)O)cc(Nc2cccc(S(N)(=O)=O)c2)c2c1C(=O)c1ccccc1C2=O [drawing 58]	58 µM														
Nc1ccc(Nc2cc(S(=O)(=O)O)c(N)c3c2C(=O)c2ccccc2C3=O)cc1 [drawing 59]	12 µM														
Nc1cccc(Nc2cc(S(=O)(=O)O)c(N)c3c2C(=O)c2ccccc2C3=O)c1 [drawing 60]	15 µM														
Nc1ccc(-c2ccc(Nc3cc(S(=O)(=O)O)c(N)c4c3C(=O)c3ccccc3C4=O)cc2)c(S(=O)(=O)O)c1 [drawing 61]	62 µM														
Nc1c(S(=O)(=O)O)cc(Nc2cccc(S(N)(=O)=O)c2)c2c1C(=O)c1ccccc1C2=O [drawing 62]		10 µM													
Nc1ccc(Nc2cc(S(=O)(=O)O)c(N)c3c2C(=O)c2ccccc2C3=O)cc1 [drawing 63]		2.5 µM													
Nc1cccc(Nc2cc(S(=O)(=O)O)c(N)c3c2C(=O)c2ccccc2C3=O)c1 [drawing 64]		6 µM													
Nc1ccc(-c2ccc(Nc3cc(S(=O)(=O)O)c(N)c4c3C(=O)c3ccccc3C4=O)cc2)c(S(=O)(=O)O)c1 [drawing 65]		16 µM													
SCEKRLGVRSCT (phage-displayed) [Compound C5]			56.3 ± 4.1%	33.5 ± 7.2%	16.7 ± 4.8%	76.5 ± 6.7%	3.2 ± 3.7%	73.8 ± 16.6%	5.6 ± 5.3%	39.0 ± 3.8%	45.7 ± 5.2%	47.8 ± 18.9%	28.5 ± 5.2%	58.7 ± 14.4%	97.2 ± 14.2%
SCEKRYGIEFCT [Compound C4]			35.8 ± 7.4%	11.5 ± 6.0%	4.4 ± 3.8%	1.4 ± 1.0%	1.7 ± 3.0%	7.6 ± 9.6%	−0.2 ± 1.9%	67.0 ± 15.2%	51.3 ± 15.0%	61.2 ± 30.9%	18.4 ± 7.1%	36.5 ± 8.3%	127.5 ± 22.4%
SCGHGLKVQSTIGACA [Compound 3C]			2.0 ± 2.7%	4.1 ± 4.4%	2.7 ± 10.5%	8.3 ± 3.6%	−0.3 ± 1.7%	8.5 ± 6.4%	3.6 ± 7.5%	−0.5 ± 5.9%	35.0 ± 17.2%	−4.2 ± 5.5%	10 ± 13.3%	30.5 ± 18.9%	−5.7 ± 5.6%
SCKRTKAQILLAPCT [Compound C1]			2.3 ± 3.0%	19.8 ± 12.3%	88.0 ± 29.9%	2.8 ± 1.6%	−0.3 ± 2.5%	0.3 ± 0.7%	0.1 ± 1.6%	1.2 ± 2.7%	1.4 ± 1.7%	70.5 ± 35.3%	5.2 ± 3.1%	3.0 ± 4.0%	4.0 ± 3.4%
SIGKALFILGYPDYD [Compound 3.14]			66.5 ± 7.5%	22.4 ± 4.2%	0.8 ± 0.9%	50.2 ± 5.0%	7.1 ± 3.7%	24.7 ± 15.2%	18.6 ± 4.6%	66.0 ± 7.7%	14.4 ± 13.4%	26.8 ± 12.5%	2.1 ± 2.4%	93.4 ± 21.5%	2.5 ± 3.7%
WCPPKAMTQLGIKAC [Compound C14]			6.3 ± 13.9%	60.0 ± 26.5%	1.9 ± 5.9%	3.9 ± 7.9%	1.6 ± 2.4%	3.6 ± 2.0%	3.0 ± 5.0%	10.1 ± 3.3%	3.6 ± 1.9%	1.1 ± 4.9%	3.8 ± 9.2%	6.1 ± 3.4%	9.9 ± 3.8%
WCPPKLEQWYDGCA [Compound C2]			5.9 ± 5.7%	0.0 ± 3.3%	4.5 ± 8.1%	1.3 ± 3.1%	4.7 ± 6.2%	−1.7 ± 4.8%	−1.2 ± 4.5%	−1.0 ± 5.1%	267.2 ± 40.6%	157.1 ± 51.5%	1.5 ± 5.5%	11.7 ± 8.0%	−0.7 ± 2.5%
